The results in this text go back to patent US20150098955A1 (VIELA BIO, published 2015).

Assay [1] has as its target Murine CD40L on cells (D10.G4 / D10G4.1 cells; activated murine T cells) (murine) (UniProt P27548). Briefly: cell-based or functional assay.
Assay [2] addresses Murine MegaCD40L (Axxora, cat. ALX522120) (murine) (UniProt P27548). Put plainly: cell-based or functional assay.
The target in assay [3] is T1, Recombinant human CD40L (Human MegaCD40L; Axxora) (human, UniProt P29965 47-261, biotinylated with EZ-Link sulfo-NHS-biotin where used in the plate binding assay).
T1 construct: extracellular domain; Bought construct (Axxora ALX522110): two trimeric CD40 ligands linked via the ACRP30 collagen domain; also called biotinylated Human MegaCD40L; Mega human CD40L; not shown: FLAG tag and collagen domain of ACRP30/adiponectin that links two CD40L trimers
T1 sequence (looked up): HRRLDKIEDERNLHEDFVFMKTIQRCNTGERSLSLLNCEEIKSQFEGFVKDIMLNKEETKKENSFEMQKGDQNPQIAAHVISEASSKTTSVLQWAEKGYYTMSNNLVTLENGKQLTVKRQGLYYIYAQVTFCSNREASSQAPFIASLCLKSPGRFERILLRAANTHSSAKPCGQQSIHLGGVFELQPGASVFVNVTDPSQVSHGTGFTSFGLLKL
Briefly: capture ELISA: His-tagged Tn3 captured on anti-His antibody, biotinylated Human MegaCD40L detected with SA-HRP.

For assay [4], the target named is T1, Recombinant human CD40L (Human …). Briefly: ProteOn XPR36 biosensor, human MegaCD40L immobilized on GLC chip, purified Tn3 as analyte. As to the method: Outputs were pool cloned into the soluble secretion vector as previously described, and five 96-well plates were screened for CD40L binding using the soluble protein screening assay described previously. Positive hits were identified relative to the signal obtained with the 311K4E backbone variant. […] PBS, 0.005% Tween20, 3 mM EDTA, pH7.4 was used as running buffer. Off-rates were ranked by visual inspection of the sensorgrams.

For assay [5], the target named is T2, Human CD40L, membrane form, on cells (Jurkat D1.1 cells; activated primary human T cells) (human, UniProt P29965 1-261).
T2 sequence: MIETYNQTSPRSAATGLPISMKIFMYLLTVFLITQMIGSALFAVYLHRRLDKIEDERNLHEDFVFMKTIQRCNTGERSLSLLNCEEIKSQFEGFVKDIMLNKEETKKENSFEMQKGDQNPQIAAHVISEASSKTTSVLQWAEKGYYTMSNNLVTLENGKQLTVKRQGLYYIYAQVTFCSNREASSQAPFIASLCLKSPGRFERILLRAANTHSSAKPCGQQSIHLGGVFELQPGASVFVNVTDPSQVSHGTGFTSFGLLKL
Briefly: cell-based or functional assay.

Assay [6] deals with T2, Human CD40L, membrane form, on cells …. Briefly: cell-based or functional assay. This is another data set of the same source.
The target of assay [7] is T1, Recombinant human CD40L (Human …). Put plainly: ProteOn XPR36 biosensor, human MegaCD40L immobilized on GLC chip, Tn3 as analyte, equilibrium analysis, 25 C. As to the method: ProteOn phosphate buffered saline with 0.005% Tween 20, pH 7.4 (PBS/Tween) was used as running buffer. Human MegaCD40L was immobilized on the chip at a surface density of approximately 2300 RU. […] Samples of each concentration were injected into the six analyte channels at a flow rate of 30 μl/min. for 300 seconds. The Kd was determined by using the equilibrium analysis setting within the ProteOn software.

For assay [8], the target named is Human CD40L, membrane form, on cells (Jurkat D1.1 cells; activated primary human T cells) (human) (UniProt P29965). Put plainly: cell-based or functional assay.

In assay [1], “MR1 anti-murine CD40L monoclonal antibody” had an IC50, inhibition of CD86 up regulation on CD19+ B cells (PBMC stimulated with D10.G4 cells) of 0.23 nM. The same molecule had an IC50, inhibition of CD40L-induced NFκB activity in assay [2] of 0.2 nM.

B1: 311 variant with the DE loop changed to the parent Tn3 DE loop sequence (designed binder)
chain: AIEVKDVTDTTALITWTNRSSYYNLHGCELTYGIKDVPGDRTTIDLTEDENQYSIGNLKPDTEYEVSLICLTTDGTYSNPAKETFTTGGGTLGHHHHHHHH
For B1, the binding result in assay [3] is on record as “no binding”.

B2: Clone 311K4E_11 - Clone Variant from second round of affinity maturation (designed binder)
chain: AIEVEDVTDTTALITWTNRSSYANLPGCELTYGIKDVPGDRTTIDLNSPYVHYSIGNLKPDTEYEVSLICLTTDGTYSNPAKETFTTGGGTLGHHHHHHHH
notes: Secreted His8-tagged form
B2: the Kd (commonly the free concentration of one partner at which half of the binding sites on the other are occupied at equilibrium, for simple one-to-one binding) in assay [4] was 6.3 nM.

B3: Clone 311K4E - Variant from first round of affinity maturation (designed binder)
chain: AIEVEDVTDTTALITWTNRSSYYNLHGCELTYGIKDVPGDRTTIDLSSPYVHYSIGNLKPDTEYEVSLICLTTDGTYSNPAKETFTTGGGTLGHHHHHHHH
notes: Secreted His8-tagged form
In the case of B3, the “fold increase in potency over 311 in the PBMC assay” value in assay [5] is around 100 fold. Further, the Kd in assay [4] was 18 nM.

B4: Clone 311K4E_12 - Clone Variant from second round of affinity maturation (designed binder)
chain: AIEVEDVTDTTALITWTNRSSYSNLHGCELAYGIKDVPGDRTTIDLNQPYVHYSIGNLKPDTEYEVSLICLTTDGTYNNPAKETFTTGGGTLGHHHHHHHH
notes: Secreted His8-tagged form
As for B4, the “fold increase in potency in the PBMC assay relative to 311K4E” value in assay [5] came out at 12 fold. Moreover, in assay [4], the Kd was 1.1 nM.

B5: Clone 311K4E_3 - Clone Variant from second round of affinity maturation (designed binder)
chain: AIEVEDVTDTTALITWINRSSYHNFPHCELAYGIKDVPGDRTTIDLNSPYVHYSIGNLKPDTEYEVSLICLTTDGTYSNPAKETFTTGGGTLGHHHHHHHH
notes: Secreted His8-tagged form
Turning to B5, the Kd in assay [4] amounted to 6.4 nM.

B6: Clone 311K4E_15 - Clone Variant from second round of affinity maturation (designed binder)
chain: AIEVEDVTDTTALITWTNRSSYANYHHCELTYGIKDVPGDRTTIDLELYVHYSIGNLKPDTEYEVSLICLTTDGTYSNPAKETFTTGGGTLGHHHHHHHH
notes: Secreted His8-tagged form
Take B6: the Kd in assay [4] was determined as 1.6 nM.

B7: 309 variant with the BC loop changed to the parent Tn3 BC loop sequence (designed binder)
chain: AIEVKDVTDTTALITWFKPLAEIDGCELTYGIKDVPGDRTTIDLWWHSAWYSIGNLKPDTEYEVSLICYTDQEAGNPAKETFTTGGGTLGHHHHHHHH
For the molecule B7, in assay [3], the binding result was “no binding”.

B8: Clone 309FGwt - Parental clone with 'humanized' FG loop (designed binder)
chain: AIEVKDVTDTTALITWSDEFGHYDGCELTYGIKDVPGDRTTIDLWWHSAWYSIGNLKPDTEYEVSLICRRGDMSSNPAKETFTTGGGTLGHHHHHHHH
For the molecule B8, the “PBMC IC50” value in assay [6] was found to be 760 nM.

B9: Clone 340 - Affinity Mature variant (designed binder)
chain: AIEVKDVTDTTALITWSDDFDNYEWCELTYGIKDVPGDRTTIDLWYHMAWYSIGNLKPDTEYEVSLICRRGDMSSNPAKETFTTGGGTLGHHHHHHHH
notes: Secreted His8-tagged form
In the case of B9, the “PBMC IC50” value in assay [6] turned out to be 0.7 nM. Moreover, the Kd in assay [7] was 2.2 nM.

B10: Clone 341 - Affinity Mature variant (designed binder)
chain: AIEVKDVTDTTALITWSDDFADYVWCELTYGIKDVPGDRTTIDLWWHSAWYSIGNLKPDTEYEVSLICRRGDMSSNPAKETFTTGGGTLGHHHHHHHH
In the case of B10, the “PBMC IC50” value in assay [6] turned out to be 0.7 nM.

B11: Clone 309 - Parental clone isolated from naive Tn3 library (designed binder)
chain: AIEVKDVTDTTALITWSDEFGHYDGCELTYGIKDVPGDRTTIDLWWHSAWYSIGNLKPDTEYEVSLICYTDQEAGNPAKETFTTGGGTLGHHHHHHHH
notes: Secreted His8-tagged form purified on Ni-NTA
B11: the “PBMC IC50” value in assay [6] is 226 nM. The Kd in assay [7] came to 191 nM.

B12: Clone 343 - Affinity Mature variant (designed binder)
chain: AIEVKDVTDTTALITWLDDWGSYHVCELTYGIKDVPGDRTTIDLWYHQAWYSIGNLKPDTEYEVSLICRRGDMSSNPAKETFTTGGGTLGHHHHHHHH
notes: Secreted His8-tagged form
In the case of B12, the “PBMC IC50” value in assay [6] came out at 0.6 nM. Besides, the Kd in assay [7] worked out at 2 nM.

B13: Clone 349 - Affinity Mature variant (designed binder)
chain: AIEVKDVTDTTALITWSDEHAEFIGCELTYGIKDVPGDRTTIDLWWHSAWYSIGNLKPDTEYEVSLICRRGDMSSNPAKETFTTGGGTLGHHHHHHHH
notes: Secreted His8-tagged form
In the case of B13, the “PBMC IC50” value in assay [6] was 38.2 nM. For the same molecule, the Kd in assay [7] was determined as 21 nM.

B14: Clone 345 - Affinity Mature variant (designed binder)
chain: AIEVKDVTDTTALITWSDDFAEYVGCELTYGIKDVPGDRTTIDLWWHSAWYSIGNLKPDTEYEVSLICRRGDMSSNPAKETFTTGGGTLGHHHHHHHH
notes: Secreted His8-tagged form
As for B14, the “PBMC IC50” value in assay [6] is 37.3 nM. For the same molecule, in assay [7], the Kd is 39 nM.

B15: Clone 346 - Affinity Mature variant (designed binder)
chain: AIEVKDVTDTTALITWSDDFEEYVVCELTYGIKDVPGDRTTIDLWWHSAWYSIGNLKPDTEYEVSLICRRGDMSSNPAKETFTTGGGTLGHHHHHHHH
notes: Secreted His8-tagged form
On to B15, for which, in assay [6], the “PBMC IC50” value was 9 nM. The Kd in assay [7] came to 14.9 nM.

B16: Clone 344 - Affinity Mature variant (designed binder)
chain: AIEVKDVTDTTALITWSDEVGDYVVCELTYGIKDVPGDRTTIDLWYHMAWYSIGNLKPDTEYEVSLICRRGDMSSNPAKETFTTGGGTLGHHHHHHHH
Turning to B16, in assay [6], the “PBMC IC50” value is 1.3 nM.

B17: Clone 347 - Affinity Mature variant (designed binder)
chain: AIEVKDVTDTTALITWSDEVGQYVGCELTYGIKDVPGDRTTIDLWYHMAWYSIGNLKPDTEYEVSLICRRGDMSSNPAKETFTTGGGTLGHHHHHHHH
notes: Secreted His8-tagged form
B17: the “PBMC IC50” value in assay [6] was found to be 11 nM. Also, the Kd in assay [7] was determined as 10.7 nM.

B18: Clone 348 - Affinity Mature variant (designed binder)
chain: AIEVKDVTDTTALITWSDDIGLYVWCELTYGIKDVPGDRTTIDLWFHQAWYSIGNLKPDTEYEVSLICRRGDMSSNPAKETFTTGGGTLGHHHHHHHH
notes: Secreted His8-tagged form
As for B18, the “PBMC IC50” value in assay [6] came out at 1 nM. For the same molecule, the Kd in assay [7] was determined as 1.8 nM.

B19: 311-3GS bivalent tandem scaffold (designed binder)
chain: IEVKDVTDTTALITWTNRSSYYNLHGCELTYGIKDVPGDRTTIDLSSPYVHYSIGNLKPDTEYEVSLICLTTDGTYSNPAKETFTTGGGGSGGGGSGGGGSIEVKDVTDTTALITWTNRSSYYNLHGCELTYGIKDVPGDRTTIDLSSPYVHYSIGNLKPDTEYEVSLICLTTDGTYSNPAKETFTT
Regarding B19, the “fold improvement over monovalent 311, inhibition of human CD40L-induced expression on CD19 positive human PBMCs” value in assay [5] is around 7 fold.

B20: 311-7GS bivalent tandem scaffold (designed binder)
chain: IEVKDVTDTTALITWTNRSSYYNLHGCELTYGIKDVPGDRTTIDLSSPYVHYSIGNLKPDTEYEVSLICLTTDGTYSNPAKETFTTGGGGSGGGGSGGGGSGGGGSGGGGSGGGGSGGGGSIEVKDVTDTTALITWTNRSSYYNLHGCELTYGIKDVPGDRTTIDLSSPYVHYSIGNLKPDTEYEVSLICLTTDGTYSNPAKETFTT
B20 showed a fold improvement over monovalent 311, inhibition of human CD40L-induced expression on CD19 positive human PBMCs in assay [8] of 7 fold.

B21: 311 variant with the BC loop changed to the parent Tn3 BC loop sequence (designed binder)
chain: AIEVKDVTDTTALITWFKPLAEIDGCELTYGIKDVPGDRTTIDLSSPYVHYSIGNLKPDTEYEVSLICLTTDGTYSNPAKETFTTGGGTLGHHHHHHHH
In the case of B21, in assay [3], the binding result was “no binding”.

B22: 309 variant with the DE loop changed to the parent Tn3 DE loop sequence (designed binder)
chain: AIEVKDVTDTTALITWSDEFGHYDGCELTYGIKDVPGDRTTIDLTEDENQYSIGNLKPDTEYEVSLICYTDQEAGNPAKETFTTGGGTLGHHHHHHHH
For B22, in assay [3], the binding result is given as “no binding”.
